Experiment: yeast display, Sf9 membrane polyspecificity reagent, FACS + sequencing; frameworks hold sequencing errors
Method in brief: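 Galactose induction of a Saccharomyces cerevisiae BJ5465 synthetic nanobody display library ran 36–48 hours. The cells were then stained for 1 hour at 4 °C with 10% biotinylated, detergent-solubilized Sf9 membrane reagent, pulled down on streptavidin microbeads and FACS-sorted into low and high (top ~1%) gates on expression and reagent-binding fluorescence. Labels for polyreactivity follow the gate of origin.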

Sequence | polyreactivity (PSR sort gate)
RVQLVQSGGGLVQAGGSLRLSCAASGRIFSYNAMGWYRQAPGKERELVAAITFSGGGTYYADSVKGRFTISRDNAKNTVYLQMNSLIPEDTAVYYCNKVSYGYSTYGYWGQGTQVTVSS | low polyreactivity
VQLVESGGGLVQAGGSLRLSCAACGSTFYPYAMGWYRPAPGKERELVAAISYSGGSTYYADSVKGRFTISRDNAKNTVYLQMNSLKPEDTAVYYCAARYWYKRFVWGDYWGQGTQVTVSS | high polyreactivity
